{
  "source": "paper doi:10.1101/2021.02.18.431627",
  "about": "(bioRxiv, 2021)",
  "molecules": {"B1": {"name": "GlyR-α3L-eGFP (glycine receptor α3, long splice variant L, N-terminally tagged with eGFP) (receptor, mouse, UniProt Q91XP5 34-464, looked up)", "chain": "ARSRSAPMSPSDFLDKLMGRTSGYDARIRPNFKGPPVNVTCNIFINSFGSIAETTMDYRVNIFLRQKWNDPRLAYSEYPDDSLDLDPSMLDSIWKPDLFFANEKGANFHEVTTDNKLLRIFKNGNVLYSIRLTLTLSCPMDLKNFPMDVQTCIMQLESFGYTMNDLIFEWQDEAPVQVAEGLTLPQFLLKEEKDLRYCTKHYNTGKFTCIEVRFHLERQMGYYLIQMYIPSLLIVILSWVSFWINMDAAPARVALGITTVLTMTTQSSGSRASLPKVSYVKAIDIWMAVCLLFVFSALLEYAAVNFVSRQHKELLRFRRKRKNKTEAFALEKFYRFSDTDDEVRESRFSFTAYGMGPCLQAKDGVVPKGPNHAVQVMPKSPDEMRKVFIDRAKKIDTISRACFPLAFLIFNIFYWVIYKILRHEDIHQQQD"}},
  "key": {"[1]": {"biological_target": "GlyR-α3L-eGFP (glycine receptor α3, long splice variant L, N-terminally tagged with eGFP) (mouse) (UniProt Q91XP5)", "test": "molecular brightness by raster image correlation spectroscopy"}, "[2]": {"biological_target": "GlyR-α3L-eGFP (glycine receptor α3, long splice variant L, N-terminally tagged with eGFP) (mouse) (UniProt Q91XP5)", "test": "subunit counting by stepwise photobleaching"}, "[3]": {"biological_target": "the molecule itself", "test": "molecular brightness by raster image correlation spectroscopy"}, "[4]": {"biological_target": "the molecule itself", "test": "subunit counting by stepwise photobleaching"}},
  "data": [
    {"molecule": "GlyR-α3K-mCherry (glycine receptor α3, short splice variant K, N-terminally tagged with mCherry)", "values": [
      {"measurement": "N (α3L-eGFP subunits per heteropentamer, in a few cells)", "setting": "[1]", "value": 1},
      {"measurement": "N (α3L-eGFP subunits per heteropentamer)", "setting": "[2]", "value": "2 to 4"},
      {"measurement": "heteropentameric fraction (fit with a 2nd order binomial)", "setting": "[2]", "value": 23, "unit": "%"},
      {"measurement": "heteropentameric fraction (fit with a 3rd order binomial)", "setting": "[2]", "value": 36, "unit": "%"},
      {"measurement": "heteropentameric fraction (fit with a 4th order binomial)", "setting": "[2]", "value": 67, "unit": "%"}
    ]},
    {"molecule": "B1", "values": [
      {"measurement": "stoichiometry N", "setting": "[3]", "value": "~5"},
      {"measurement": "stoichiometry N", "setting": "[4]", "value": 5}
    ]}
  ]
}
